In publication PMC7418704 (2020):

Molecular target: Monomeric human ACE2 (19-615), Fc tag removed by thrombin (human, UniProt Q9BYF1 19-615)
Assay: BLI

Chain of Monomeric human ACE2 (19-615), Fc tag removed by thrombin (Q9BYF1 19-615): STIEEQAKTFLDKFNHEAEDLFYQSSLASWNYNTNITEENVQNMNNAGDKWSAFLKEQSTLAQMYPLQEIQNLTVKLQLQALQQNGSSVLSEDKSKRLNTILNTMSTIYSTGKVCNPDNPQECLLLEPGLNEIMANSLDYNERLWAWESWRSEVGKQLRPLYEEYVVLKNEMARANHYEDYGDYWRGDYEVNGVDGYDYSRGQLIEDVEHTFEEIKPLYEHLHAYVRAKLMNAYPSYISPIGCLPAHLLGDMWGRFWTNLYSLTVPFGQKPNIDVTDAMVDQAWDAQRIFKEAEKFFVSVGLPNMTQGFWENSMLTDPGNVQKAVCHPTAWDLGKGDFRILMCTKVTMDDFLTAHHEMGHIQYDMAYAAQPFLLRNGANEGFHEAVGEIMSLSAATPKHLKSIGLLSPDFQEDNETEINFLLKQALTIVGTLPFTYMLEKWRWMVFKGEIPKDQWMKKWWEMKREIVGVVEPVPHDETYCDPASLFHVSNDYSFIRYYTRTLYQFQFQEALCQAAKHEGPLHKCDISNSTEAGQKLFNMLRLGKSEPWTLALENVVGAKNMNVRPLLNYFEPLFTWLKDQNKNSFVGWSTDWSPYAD

B1: SARS-CoV-1 RBD (306-575), mammalian-expressed, purified (domain or fragment)
chain: not shown
B1 showed a Kd of 575 nM.
